The Kd is the equilibrium constant for the complex coming apart.

The data set addresses T1, Drosha-Quad dsRBD (human, UniProt Q9NRR4 1259-1337, K1262I;I1317K;Q1318K;E1321K).
T1 sequence: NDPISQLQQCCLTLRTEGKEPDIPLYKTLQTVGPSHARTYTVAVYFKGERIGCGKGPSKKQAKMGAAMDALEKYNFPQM
Nature of the data set: EMSA; 50 mM sodium cacodylate pH 6.0, 50 mM KCl, 5% glycerol, 1 mM DTT, 0.1 mg/mL BSA, 0.1 mg/mL herring sperm DNA, 30 min at room temperature; 10% native gel at 4 C; Hill fit. The conditions noted are these: protein: recombinant, tags: pET-47b(+) vector. (A gel shift assay detects complexes by their altered migration in electrophoresis.)

The mark [1] stands for this setting: label: 5'-32P top strand, blunt.

B1: pri-mir-16-1 (structured_RNA)
RNA: GGGUGAUAGCAAUGUCAGCAGUGCCUUAGCAGCACGUAAAUAUUGGCGUUAAGAUUCUAAAAUUAUCUCCAGUAUUAACUGUGCUGCUGAAGUAAGGUUGACCAUACUCUAC
Turning to B1, the Kd (label: 32P (5' end implied), hairpin, stem region contains 39 bp) is 2.8 ± 0.1 µM.

B2: ds33 (dsRNA)
RNA 1: GGUCAGCAGUGCCUUAGCAGCACGUAAAUAUGG
RNA 2: CCAUAUUUACGUGCUGCUAAGGCACUGCUGACC
Turning to B2, the dissociation constant (Kd) under setting [1] came out at 7.8 ± 0.2 µM.

B3: ds22 (dsRNA)
RNA 1: GUCAGCAGUGCCUUAGCAGCAC
RNA 2: GUGCUGCUAAGGCACUGCUGAC
Take B3: under setting [1], the dissociation constant Kd was 13.4 ± 0.4 µM.

B4: ds44 (dsRNA)
RNA 1: GGUCAGCAGUGCCUUAGCAGCACGUAAAUAUUGGCGUUAAGACC
RNA 2: GGUCUUAACGCCAAUAUUUACGUGCUGCUAAGGCACUGCUGACC
Consider B4, for which the Kd under setting [1] was 6.5 ± 0.6 µM.

Source of the values: article PMC5549741, “Engineering double-stranded RNA binding activity into the Drosha double-stranded RNA binding domain results in a loss of microRNA processing function”.
